{"source": "patent US9040062B2", "about": "“Preparation for treatment of spinal cord injury” (SUMITOMO DAINIPPON PHARMA CO., LTD., priority 2010, dated 2015)", "origin": "cited, not measured here", "tested_on": "cultural neuron", "details": "short time", "data": [{"molecule": "semaphorin 3A: endogenous protein that retracts the nerve growth cone and suppresses axonal growth (protein, UniProt Q14563 21-771, looked up) Semaphorin-3A: NYQNGKNNVPRLKLSYKEMLESNNVITFNGLANSSSYHTFLLDEERSRLYVGAKDHIFSFDLVNIKDFQKIVWPVSYTRRDECKWAGKDILKECANFIKVLKAYNQTHLYACGTGAFHPICTYIEIGHHPEDNIFKLENSHFENGRGKSPYDPKLLTASLLIDGELYSGTAADFMGRDFAIFRTLGHHHPIRTEQHDSRWLNDPKFISAHLISESDNPEDDKVYFFFRENAIDGEHSGKATHARIGQICKNDFGGHRSLVNKWTTFLKARLICSVPGPNGIDTHFDELQDVFLMNFKDPKNPVVYGVFTTSSNIFKGSAVCMYSMSDVRRVFLGPYAHRDGPNYQWVPYQGRVPYPRPGTCPSKTFGGFDSTKDLPDDVITFARSHPAMYNPVFPMNNRPIVIKTDVNYQFTQIVVDRVDAEDGQYDVMFIGTDVGTVLKVVSIPKETWYDLEEVLLEEMTVFREPTAISAMELSTKQQQLYIGSTAGVAQLPLHRCDIYGKACAECCLARDPYCAWDGSACSRYFPTAKRRTRRQDIRNGDPLTHCSDLHHDNHHGHSPEERIIYGVENSSTFLECSPKSQRALVYWQFQRRNEERKEEIRVDDHIIRTDQGLLLRSLQQKDSGNYLCHAVEHGFIQTLLKVTLEVIDTEHLEELLHKDDDGDGSKTKEMSNSMTPSQKVWYRDFMQLINHPNLNTMDEFCEQVWKRDRKQRRQRPGHTPGNSNKWKHLQENKKGRNRRTHEFERAPRSV", "values": [{"measurement": "concentration inducing growth cone retraction", "result": 10, "unit": "pM"}]}]}
